# How the values were obtained:
# Details in all cases: Homo sapiens
# [1] = compound: Nc1nc(-c2ccc(Cc3ccc(C(F)(F)F)cc3)cc2)cs1; experiment: (§1) Activation of N-terminal (His)6 and Xpress-tagged LTA4H (unknown origin) expressed in Escherichia coli BL21(DE3) cells assessed as increase in aminopeptidase activity by measuring Kcat for p-nitroanilide release at 0.5 uM using L-Alanine-p-nitroanilide incubated for 10 mins by UV plate reader based assay
# [2] = compound: COc1ccc(Cc2ccccc2)cc1; experiment: as §1
# [3] = compound: Cc1ccc(Cc2ccc(-c3csc(N)n3)cc2)cc1; experiment: as §1
# [4] = compound: COc1ccc(Cc2ccc(-c3csc(N)n3)cc2)cc1; experiment: as §1
# [5] = compound: Nc1nc(-c2ccc(Cc3ccccc3)cc2)cs1; experiment: as §1
# [6] = compound: Nc1nc(-c2ccc(Cc3ccc(C(F)(F)F)cc3)cc2)cs1; experiment: as §1, with “Km” for “Kcat”, “10” for “0.5”
# [7] = compound: COc1ccc(Cc2ccccc2)cc1; experiment: as §1, with “Km” for “Kcat”, “10” for “0.5”
# [8] = compound: Cc1ccc(Cc2ccc(-c3csc(N)n3)cc2)cc1; experiment: as §1, with “Km” for “Kcat”, “10” for “0.5”
# [9] = compound: COc1ccc(Cc2ccc(-c3csc(N)n3)cc2)cc1; experiment: as §1, with “Km” for “Kcat”, “10” for “0.5”
# [10] = compound: Nc1nc(-c2ccc(Cc3ccccc3)cc2)cs1; experiment: as §1, with “Km” for “Kcat”, “10” for “0.5”
# [11] = compound: Nc1nc(-c2ccc(Cc3ccc(C(F)(F)F)cc3)cc2)cs1; experiment: as §1, with “0.1” for “0.5”
# [12] = compound: COc1ccc(Cc2ccccc2)cc1; experiment: as §1, with “0.1” for “0.5”
# [13] = compound: Cc1ccc(Cc2ccc(-c3csc(N)n3)cc2)cc1; experiment: as §1, with “0.1” for “0.5”
# [14] = compound: COc1ccc(Cc2ccc(-c3csc(N)n3)cc2)cc1; experiment: as §1, with “0.1” for “0.5”
# [15] = compound: Nc1nc(-c2ccc(Cc3ccccc3)cc2)cs1; experiment: as §1, with “0.1” for “0.5”
# [16] = compound: Nc1nc(-c2ccc(Cc3ccc(C(F)(F)F)cc3)cc2)cs1; experiment: as §1, with “Kcat/Km ratio” for “Kcat”, “0.1” for “0.5”
# [17] = compound: COc1ccc(Cc2ccccc2)cc1; experiment: as above
# [18] = compound: Cc1ccc(Cc2ccc(-c3csc(N)n3)cc2)cc1; experiment: as above
# [19] = compound: COc1ccc(Cc2ccc(-c3csc(N)n3)cc2)cc1; experiment: as above
# [20] = compound: Nc1nc(-c2ccc(Cc3ccccc3)cc2)cs1; experiment: as above
# [21] = compound: Nc1nc(-c2ccc(Cc3ccc(C(F)(F)F)cc3)cc2)cs1; experiment: as §1, with “Km” for “Kcat”, “0.1” for “0.5”
# [22] = compound: COc1ccc(Cc2ccccc2)cc1; experiment: as §1, with “Km” for “Kcat”, “0.1” for “0.5”
# [23] = compound: Cc1ccc(Cc2ccc(-c3csc(N)n3)cc2)cc1; experiment: as §1, with “Km” for “Kcat”, “0.1” for “0.5”
# [24] = compound: COc1ccc(Cc2ccc(-c3csc(N)n3)cc2)cc1; experiment: as §1, with “Km” for “Kcat”, “0.1” for “0.5”
# [25] = compound: Nc1nc(-c2ccc(Cc3ccccc3)cc2)cs1; experiment: as §1, with “Km” for “Kcat”, “0.1” for “0.5”
# [26] = compound: Nc1nc(-c2ccc(Cc3ccc(C(F)(F)F)cc3)cc2)cs1; experiment: as §1, with “Km” for “Kcat”
# [27] = compound: COc1ccc(Cc2ccccc2)cc1; experiment: as §1, with “Km” for “Kcat”
# [28] = compound: Cc1ccc(Cc2ccc(-c3csc(N)n3)cc2)cc1; experiment: as §1, with “Km” for “Kcat”
# [29] = compound: COc1ccc(Cc2ccc(-c3csc(N)n3)cc2)cc1; experiment: as §1, with “Km” for “Kcat”
# [30] = compound: Nc1nc(-c2ccc(Cc3ccccc3)cc2)cs1; experiment: as §1, with “Km” for “Kcat”
# [31] = compound: Nc1nc(-c2ccc(Cc3ccc(C(F)(F)F)cc3)cc2)cs1; experiment: as §1, with “1” for “0.5”
# [32] = compound: COc1ccc(Cc2ccccc2)cc1; experiment: as §1, with “1” for “0.5”
# [33] = compound: Cc1ccc(Cc2ccc(-c3csc(N)n3)cc2)cc1; experiment: as §1, with “1” for “0.5”
# [34] = compound: COc1ccc(Cc2ccc(-c3csc(N)n3)cc2)cc1; experiment: as §1, with “1” for “0.5”
# [35] = compound: Nc1nc(-c2ccc(Cc3ccccc3)cc2)cs1; experiment: as §1, with “1” for “0.5”
# [36] = compound: Nc1nc(-c2ccc(Cc3ccc(C(F)(F)F)cc3)cc2)cs1; experiment: as §1, with “Km” for “Kcat”, “1” for “0.5”
# [37] = compound: COc1ccc(Cc2ccccc2)cc1; experiment: as §1, with “Km” for “Kcat”, “1” for “0.5”
# [38] = compound: Cc1ccc(Cc2ccc(-c3csc(N)n3)cc2)cc1; experiment: as §1, with “Km” for “Kcat”, “1” for “0.5”
# [39] = compound: COc1ccc(Cc2ccc(-c3csc(N)n3)cc2)cc1; experiment: as §1, with “Km” for “Kcat”, “1” for “0.5”
# [40] = compound: Nc1nc(-c2ccc(Cc3ccccc3)cc2)cs1; experiment: as §1, with “Km” for “Kcat”, “1” for “0.5”
# [41] = compound: Nc1nc(-c2ccc(Cc3ccc(C(F)(F)F)cc3)cc2)cs1; experiment: as §1, with “10” for “0.5”
# [42] = compound: COc1ccc(Cc2ccccc2)cc1; experiment: as §1, with “10” for “0.5”
# [43] = compound: Cc1ccc(Cc2ccc(-c3csc(N)n3)cc2)cc1; experiment: as §1, with “10” for “0.5”
# [44] = compound: COc1ccc(Cc2ccc(-c3csc(N)n3)cc2)cc1; experiment: as §1, with “10” for “0.5”
# [45] = compound: Nc1nc(-c2ccc(Cc3ccccc3)cc2)cs1; experiment: as §1, with “10” for “0.5”
# [46] = compound: Nc1nc(-c2ccc(Cc3ccc(C(F)(F)F)cc3)cc2)cs1; experiment: as §1, with “Kcat/Km ratio” for “Kcat”, “10” for “0.5”
# [47] = compound: COc1ccc(Cc2ccccc2)cc1; experiment: as above
# [48] = compound: Cc1ccc(Cc2ccc(-c3csc(N)n3)cc2)cc1; experiment: as above
# [49] = compound: COc1ccc(Cc2ccc(-c3csc(N)n3)cc2)cc1; experiment: as above
# [50] = compound: Nc1nc(-c2ccc(Cc3ccccc3)cc2)cs1; experiment: as above
# [51] = compound: Nc1nc(-c2ccc(Cc3ccc(C(F)(F)F)cc3)cc2)cs1; experiment: as §1, with “Kcat/Km ratio” for “Kcat”
# [52] = compound: COc1ccc(Cc2ccccc2)cc1; experiment: as §1, with “Kcat/Km ratio” for “Kcat”
# [53] = compound: Cc1ccc(Cc2ccc(-c3csc(N)n3)cc2)cc1; experiment: as §1, with “Kcat/Km ratio” for “Kcat”
# [54] = compound: COc1ccc(Cc2ccc(-c3csc(N)n3)cc2)cc1; experiment: as §1, with “Kcat/Km ratio” for “Kcat”
# [55] = compound: Nc1nc(-c2ccc(Cc3ccccc3)cc2)cs1; experiment: as §1, with “Kcat/Km ratio” for “Kcat”
# [56] = compound: Nc1nc(-c2ccc(Cc3ccc(C(F)(F)F)cc3)cc2)cs1; experiment: as §1, with “Kcat/Km ratio” for “Kcat”, “5” for “0.5”
# [57] = compound: COc1ccc(Cc2ccccc2)cc1; experiment: as above
# [58] = compound: Cc1ccc(Cc2ccc(-c3csc(N)n3)cc2)cc1; experiment: as above
# [59] = compound: COc1ccc(Cc2ccc(-c3csc(N)n3)cc2)cc1; experiment: as above
# [60] = compound: Nc1nc(-c2ccc(Cc3ccccc3)cc2)cs1; experiment: as above
# [61] = compound: Nc1nc(-c2ccc(Cc3ccc(C(F)(F)F)cc3)cc2)cs1; experiment: as §1, with “Km” for “Kcat”, “5” for “0.5”
# [62] = compound: COc1ccc(Cc2ccccc2)cc1; experiment: as §1, with “Km” for “Kcat”, “5” for “0.5”
# [63] = compound: Cc1ccc(Cc2ccc(-c3csc(N)n3)cc2)cc1; experiment: as §1, with “Km” for “Kcat”, “5” for “0.5”
# [64] = compound: COc1ccc(Cc2ccc(-c3csc(N)n3)cc2)cc1; experiment: as §1, with “Km” for “Kcat”, “5” for “0.5”
# [65] = compound: Nc1nc(-c2ccc(Cc3ccccc3)cc2)cs1; experiment: as §1, with “Km” for “Kcat”, “5” for “0.5”
# [66] = compound: Nc1nc(-c2ccc(Cc3ccc(C(F)(F)F)cc3)cc2)cs1; experiment: as §1, with “5” for “0.5”
# [67] = compound: COc1ccc(Cc2ccccc2)cc1; experiment: as §1, with “5” for “0.5”
# [68] = compound: Cc1ccc(Cc2ccc(-c3csc(N)n3)cc2)cc1; experiment: as §1, with “5” for “0.5”
# [69] = compound: COc1ccc(Cc2ccc(-c3csc(N)n3)cc2)cc1; experiment: as §1, with “5” for “0.5”
# [70] = compound: Nc1nc(-c2ccc(Cc3ccccc3)cc2)cs1; experiment: as §1, with “5” for “0.5”
# [71] = compound: Nc1nc(-c2ccc(Cc3ccc(C(F)(F)F)cc3)cc2)cs1; experiment: as §1, with “Kcat/Km ratio” for “Kcat”, “1” for “0.5”
# [72] = compound: COc1ccc(Cc2ccccc2)cc1; experiment: as above
# [73] = compound: Cc1ccc(Cc2ccc(-c3csc(N)n3)cc2)cc1; experiment: as above
# [74] = compound: COc1ccc(Cc2ccc(-c3csc(N)n3)cc2)cc1; experiment: as above
# [75] = compound: Nc1nc(-c2ccc(Cc3ccccc3)cc2)cs1; experiment: as above
protein,measurement,setting,value
"Leukotriene A-4 hydrolase (Homo sapiens), P09960 (protein) MPEIVDTCSLASPASVCRTKHLHLRCSVDFTRRTLTGTAALTVQSQEDNLRSLVLDTKDLTIEKVVINGQEVKYALGERQSYKGSPMEISLPIALSKNQEIVIEISFETSPKSSALQWLTPEQTSGKEHPYLFSQCQAIHCRAILPCQDTPSVKLTYTAEVSVPKELVALMSAIRDGETPDPEDPSRKIYKFIQKVPIPCYLIALVVGALESRQIGPRTLVWSEKEQVEKSAYEFSETESMLKIAEDLGGPYVWGQYDLLVLPPSFPYGGMENPCLTFVTPTLLAGDKSLSNVIAHEISHSWTGNLVTNKTWDHFWLNEGHTVYLERHICGRLFGEKFRHFNALGGWGELQNSVKTFGETHPFTKLVVDLTDIDPDVAYSSVPYEKGFALLFYLEQLLGGPEIFLGFLKAYVEKFSYKSITTDDWKDFLYSYFKDKVDVLNQVDWNAWLYSPGLPPIKPNYDMTLTNACIALSQRWITAKEDDLNSFNATDLKDLSSHQLNEFLAQTLQRAPLPLGHIKRMQEVYNFNAINNSEIRFRWLRLCIQSKWEDAIPLALKMATEQGRMKFTRPLFKDLAAFDKSHDQAVRTYQEHKASMHPVTAMLVGKDLKVD",kcat,[1],5.09 s⁻¹
same,kcat,[2],5.54 s⁻¹
same,kcat,[3],31.3 s⁻¹
same,kcat,[4],25.9 s⁻¹
same,kcat,[5],21.1 s⁻¹
same,Km,[6],10.1 mM
same,Km,[7],1.75 mM
same,Km,[8],3.12 mM
same,Km,[9],6.6 mM
same,Km,[10],4.03 mM
same,kcat,[11],1.91 s⁻¹
same,kcat,[12],3.01 s⁻¹
same,kcat,[13],21.1 s⁻¹
same,kcat,[14],9.98 s⁻¹
same,kcat,[15],9.63 s⁻¹
same,kcat/Km,[16],840 M⁻¹ s⁻¹
same,kcat/Km,[17],3070 M⁻¹ s⁻¹
same,kcat/Km,[18],6380 M⁻¹ s⁻¹
same,kcat/Km,[19],4870 M⁻¹ s⁻¹
same,kcat/Km,[20],4440 M⁻¹ s⁻¹
same,Km,[21],2.27 mM
same,Km,[22],0.98 mM
same,Km,[23],3.3 mM
same,Km,[24],2.05 mM
same,Km,[25],2.17 mM
same,Km,[26],4.21 mM
same,Km,[27],0.91 mM
same,Km,[28],3.11 mM
same,Km,[29],4.18 mM
same,Km,[30],2.99 mM
same,kcat,[31],8.23 s⁻¹
same,kcat,[32],8.68 s⁻¹
same,kcat,[33],32.5 s⁻¹
same,kcat,[34],32 s⁻¹
same,kcat,[35],31.9 s⁻¹
same,Km,[36],5.94 mM
same,Km,[37],1.03 mM
same,Km,[38],2.87 mM
same,Km,[39],4.75 mM
same,Km,[40],4.04 mM
same,kcat,[41],23.2 s⁻¹
same,kcat,[42],30.3 s⁻¹
same,kcat,[43],35.6 s⁻¹
same,kcat,[44],44.1 s⁻¹
same,kcat,[45],39.6 s⁻¹
same,kcat/Km,[46],2300 M⁻¹ s⁻¹
same,kcat/Km,[47],17300 M⁻¹ s⁻¹
same,kcat/Km,[48],11400 M⁻¹ s⁻¹
same,kcat/Km,[49],6680 M⁻¹ s⁻¹
same,kcat/Km,[50],9810 M⁻¹ s⁻¹
same,kcat/Km,[51],1210 M⁻¹ s⁻¹
same,kcat/Km,[52],6060 M⁻¹ s⁻¹
same,kcat/Km,[53],10100 M⁻¹ s⁻¹
same,kcat/Km,[54],6180 M⁻¹ s⁻¹
same,kcat/Km,[55],7070 M⁻¹ s⁻¹
same,kcat/Km,[56],2030 M⁻¹ s⁻¹
same,kcat/Km,[57],15700 M⁻¹ s⁻¹
same,kcat/Km,[58],11700 M⁻¹ s⁻¹
same,kcat/Km,[59],6680 M⁻¹ s⁻¹
same,kcat/Km,[60],8940 M⁻¹ s⁻¹
same,Km,[61],10.3 mM
same,Km,[62],1.52 mM
same,Km,[63],2.92 mM
same,Km,[64],6.77 mM
same,Km,[65],4.72 mM
same,kcat,[66],20.9 s⁻¹
same,kcat,[67],23.9 s⁻¹
same,kcat,[68],34.3 s⁻¹
same,kcat,[69],45.2 s⁻¹
same,kcat,[70],42.2 s⁻¹
same,kcat/Km,[71],1390 M⁻¹ s⁻¹
same,kcat/Km,[72],8460 M⁻¹ s⁻¹
same,kcat/Km,[73],11300 M⁻¹ s⁻¹
same,kcat/Km,[74],6740 M⁻¹ s⁻¹
same,kcat/Km,[75],7890 M⁻¹ s⁻¹
